B1: GST-CD36 fusion protein FP93-120 (domain or fragment, human, UniProt P16671 93-120, looked up)
chain: YRVRFLAKENVTQDAEDNTVSFLQPNGA
B2: GST-CD36 fusion protein FP67-157 (domain or fragment, human, UniProt P16671 67-157, looked up)
chain: IFDVQNPQEVMMNSSNIQVKQRGPYTYRVRFLAKENVTQDAEDNTVSFLQPNGAIFEPSLSVGTEADNFTVLNLAVAAASHIYQNQFVQMI

Holding throughout (experiment): radioligand binding
For one assay, the target named is Thrombospondin-1 (human, UniProt P07996 19-1170, 125I label (radiolabeled TSP-1) in the binding assays).
Sequence of Thrombospondin-1 (P07996 19-1170): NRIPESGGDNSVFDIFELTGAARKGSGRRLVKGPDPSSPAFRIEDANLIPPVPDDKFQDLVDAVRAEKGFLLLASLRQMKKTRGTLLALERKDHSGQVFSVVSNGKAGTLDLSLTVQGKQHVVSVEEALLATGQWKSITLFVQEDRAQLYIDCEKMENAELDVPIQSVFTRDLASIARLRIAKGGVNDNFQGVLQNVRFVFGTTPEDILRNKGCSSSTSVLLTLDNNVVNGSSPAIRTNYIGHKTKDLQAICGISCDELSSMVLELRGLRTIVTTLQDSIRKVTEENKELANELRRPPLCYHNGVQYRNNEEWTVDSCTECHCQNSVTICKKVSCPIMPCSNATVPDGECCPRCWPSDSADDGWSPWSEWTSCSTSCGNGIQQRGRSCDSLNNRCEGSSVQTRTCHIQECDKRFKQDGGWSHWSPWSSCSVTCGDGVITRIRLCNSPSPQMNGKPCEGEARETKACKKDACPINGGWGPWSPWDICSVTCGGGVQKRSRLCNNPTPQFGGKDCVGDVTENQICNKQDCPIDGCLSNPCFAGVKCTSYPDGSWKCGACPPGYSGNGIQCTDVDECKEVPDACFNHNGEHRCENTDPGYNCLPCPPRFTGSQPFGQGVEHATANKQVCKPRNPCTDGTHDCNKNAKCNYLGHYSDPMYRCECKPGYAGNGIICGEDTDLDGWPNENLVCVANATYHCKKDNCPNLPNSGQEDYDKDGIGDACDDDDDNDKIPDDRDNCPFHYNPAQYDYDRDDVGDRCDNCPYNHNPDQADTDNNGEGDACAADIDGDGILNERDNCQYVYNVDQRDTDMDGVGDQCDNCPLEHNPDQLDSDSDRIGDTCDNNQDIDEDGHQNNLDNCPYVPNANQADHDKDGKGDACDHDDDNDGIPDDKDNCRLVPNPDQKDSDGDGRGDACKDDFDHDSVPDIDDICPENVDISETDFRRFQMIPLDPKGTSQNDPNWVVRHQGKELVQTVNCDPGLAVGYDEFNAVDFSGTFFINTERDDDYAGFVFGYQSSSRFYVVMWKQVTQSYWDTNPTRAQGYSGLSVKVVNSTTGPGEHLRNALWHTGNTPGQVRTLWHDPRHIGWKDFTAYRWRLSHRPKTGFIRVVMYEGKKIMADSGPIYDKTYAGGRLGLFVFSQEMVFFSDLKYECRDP
Assay [1] addresses CD36 expressed on Bowes melanoma cells stably transfected with human CD36 cDNA (human, UniProt P16671 1-472).
The target in assay [2] is B1.

For 4 molecules, binding result and IC50 results are on record in PMC2141641 (The Journal of Cell Biology, 1997).

In general, IC50 refers to the midpoint of a concentration-inhibition curve.

Sequence of CD36 expressed on Bowes melanoma cells stably transfected with human CD36 cDNA (P16671 whole entry): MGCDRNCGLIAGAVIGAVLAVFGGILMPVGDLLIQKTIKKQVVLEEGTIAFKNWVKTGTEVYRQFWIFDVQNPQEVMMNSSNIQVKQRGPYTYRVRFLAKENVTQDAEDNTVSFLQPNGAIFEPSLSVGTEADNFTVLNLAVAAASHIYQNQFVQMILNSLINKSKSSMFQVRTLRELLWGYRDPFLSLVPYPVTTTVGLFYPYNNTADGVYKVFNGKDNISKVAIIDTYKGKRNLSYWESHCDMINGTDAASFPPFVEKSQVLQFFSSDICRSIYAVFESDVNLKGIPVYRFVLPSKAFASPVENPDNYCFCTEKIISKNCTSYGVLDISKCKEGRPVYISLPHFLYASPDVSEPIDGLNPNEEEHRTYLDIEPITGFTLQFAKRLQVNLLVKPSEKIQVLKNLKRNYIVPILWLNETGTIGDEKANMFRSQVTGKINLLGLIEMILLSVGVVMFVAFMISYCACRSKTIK

As to B1, the binding result with Thrombospondin-1 is reported as “binds”.

Turning to NGVQYRN [TSP-1 peptide Col overlap], the IC50 in assay [1] was 30.1 ± 8.88 µM.

Take B2: in the assay with Thrombospondin-1, the binding result is reported as “binds”.

Turning to SPWDIASVTAGGGVQKRSK [TSP-1 peptide Mal III], the binding result in assay [2] is “binds”. In assay [1], this molecule registered a half-maximal inhibitory concentration (IC50) of 8.6 ± 1.12 µM.
